From article PMC8158039 come the findings set out here.

The target in this assay is Recombinant human neonatal Fc receptor (FcRn) (human) (UniProt P55899). The assay is described as follows: SPR. In general terms: SPR reads the build-up and loss of mass on a sensor chip optically.
Chain of UniProt P55899 (P55899 24-365, chain 1 of 2): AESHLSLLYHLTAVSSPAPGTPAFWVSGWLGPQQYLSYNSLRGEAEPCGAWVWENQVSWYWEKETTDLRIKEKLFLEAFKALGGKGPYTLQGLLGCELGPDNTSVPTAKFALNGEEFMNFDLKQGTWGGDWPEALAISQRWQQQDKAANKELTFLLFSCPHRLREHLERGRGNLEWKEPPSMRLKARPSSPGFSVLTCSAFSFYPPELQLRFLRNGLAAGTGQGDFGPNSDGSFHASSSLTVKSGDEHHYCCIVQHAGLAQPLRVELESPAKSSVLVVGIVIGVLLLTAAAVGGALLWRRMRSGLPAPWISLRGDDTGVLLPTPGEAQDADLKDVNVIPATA
Chain of UniProt P55899 (P61769 21-119, chain 2 of 2, further chain): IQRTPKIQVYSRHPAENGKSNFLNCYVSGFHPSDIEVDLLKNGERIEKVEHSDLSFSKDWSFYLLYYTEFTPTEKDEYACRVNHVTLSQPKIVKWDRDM

On to “Etanercept (from UniProt P20333 23-257) (Fc fusion)”, for which the fold of KD against adalimumab was 4 fold.
